Measurements reported in patent US20240043552A1 (Eli Lilly, published 2024).

How the values were obtained:
hEGFR-Fc-biotin = biological target: T1, hEGFR-Fc-biotin (human, UniProt P00533 25-645, biotin-labelled with EZ-LINK Sulfo-NHS-LC-Biotin); test: sandwich ELISA with mis-matched antigens
T1 construct: Bought (R&D systems); Detection antigen of the sandwich; not shown: Fc of the bought fusion protein
Method: (§1) The dual-binding activity of the same synthesized IgG BsAbs is assessed using a sandwich ELISA. […] Sandwich ELISAs are developed for detecting the four different BsAb test articles; one for detecting anti-HER-2/anti-EGFR BsAb activity, one for detecting anti-HER-2/anti-LTPR BsAb activity, one for detecting anti-cMET/anti-EGFR BsAb activity and one for detecting anti-cMET/anti-LTPR BsAb activity. For all ELISAs, clear 96-well round bottom high binding Immulon microtiter plates (Greiner bio-one, cat #650061) are coated overnight at 2-8° C. with 50 μL/well 1 μg/mL hHER-2-Fc or 1 μg/mL hHGFR(cMet)-Fc (both from R&D systems) in a 50 mM Na2CO3 pH 8.3 buffer. The plates are washed 4 times with PBST and blocked with 200 μL/well casein buffer (Pierce) for 1 hr at room temperature. The plates are then washed 4 times with PBST and the parental IgG controls or BsAb IgG test articles are added at 50 μL/well and […] and serially diluted 1:3 down the plate. The controls and test articles are incubated on the plate for 1 hr at room temperature. The plates are then washed 4 times with PBST and 50 μL/well 1 μg/mL hEGFR-Fc-biotin or hLTβR-Fc-biotin (both from R&D systems) is added for 1 hr at room temperature. The plates are then washed 4 times with PBST followed by the addition of a 50 μL/well streptavidin-AP (Jackson Immunoresearch Labs Cat. #016-050-084) diluted 1:1000 in casein buffer. The streptavidin-AP is incubated in each well for 1 hr at room temperature. The plates are then washed 4 times with PBST and 100 μL/well 1-step PNPP substrate is added (Thermo Scientific Cat. #37621). After approximately 5-15 minutes, plates are read for Absorbance (405 nm) using a SPECTRAMAX® UV plate reader (Molecular Devices). Biotin-labeling of the hEGFR-Fc and hLTβR-Fc proteins is performed using EZ-LINK™ Sulfo-NHS-LC-Biotin (Thermo Scientific Cat. #21327) according to the manufacturer's protocol.

hHER-2-Fc = biological target: T2, hHER-2-Fc (human, UniProt P04626 23-652); test: sandwich ELISA with mis-matched antigens
T2 construct: Bought (R&D systems); Coated on the plate; not shown: Fc of the bought fusion protein
Method: as §1

binding result (hEGFR-Fc-biotin) | binding result (hHER-2-Fc) | Binder
no binding | no binding | MetMAb × BHA10 IgG BsAb, CH1/Cκ Wild-Type (AB / H4DR variable domain designs, 7.8.60 CH3, N297Q) (bispecific antibody, Human IgG1; Tested as protein G purified product of four-plasmid co-expression; also called MetMAb × BHA10 Wild-Type) heavy 1: EVQLVESGGGLVQPGGSLRLSCAASGYTFTSYWLHWVRKAPGKGLEWVGMIDPSNSDTRFNPEFKDRFTISADTSKNTAYLQMNSLRAEDTAVYYCATYRSYVTPLDYWGQGTLVTVSSASTKGPSVFPLAPSSKSTSGGTAALGCLVKDYFPEPVTVSWNSGALTSGVHTFPAVLQSSGLYSLSSVVTVPSSSLGTQTYICNVNHKPSNTKVDKKVEPKSCDKTHTCPPCPAPELLGGPSVFLFPPKPKDTLMISRTPEVTCVVVDVSHEDPEVKFNWYVDGVEVHNAKTKPREEQYQSTYRVVSVLTVLHQDWLNGKEYKCKVSNKALPAPIEKTISKAKGQPREPQVYTLPPSREEMTDNQVSLTCLVKGFYPSDIAVEWESNGQPENNYKTTPPVLMSDGSFFLASKLTVDKSRWQQGNVFSCSVMHEALHNHYTQKSLSLSPG light 1: RIQMTQSPSSLSASVGDRVTITCKSSQSLLYTSSQKNYLAWYQDKPGKAPKLLIYWASTRESGVPSRFSGSGSGTDFTLTISSLQPEDFATYYCQQYYAYPWTFGQGTKVEIKRTVAAPSVFIFPPSDEQLKSGTASVVCLLNNFYPREAKVQWKVDNALQSGNSQESVTEQDSKDSTYSLSSTLTLSKADYEKHKVYACEVTHQGLSSPVTKSFNRGEC heavy 2: QVQLVQSGAEVKKPGSSVKVSCKASGYTFTTYYLHWVRYAPGQGLEWMGWIYPGNVHAQYNEKFKGRVTITADKSTSTAYMELSSLRSEDTAVYYCARSWEGFPYWGRGTTVTVSSASTKGPSVFPLAPSSKSTSGGTAALGCLVKDYFPEPVTVSWNSGALTSGVHTFPAVLQSSGLYSLSSVVTVPSSSLGTQTYICNVNHKPSNTKVDKKVEPKSCDKTHTCPPCPAPELLGGPSVFLFPPKPKDTLMISRTPEVTCVVVDVSHEDPEVKFNWYVDGVEVHNAKTKPREEQYQSTYRVVSVLTVLHQDWLNGKEYKCKVSNKALPAPIEKTISKAKGQPRRPRVYTLPPSREEMTKNQVSLVCLVKGFYPSDIAVEWESNGQPENNYKTTPPVLDSDGSFFLYSVLTVDKSRWQQGNVFSCSVMHEALHNHYTQKSLSLSPG light 2: DIQMTQSPSSLSASVGDRVTITCKASQNVGINVAWYQRKPGDAPKSLISSASYRYSGVPSRFSGSGSGTDFTLTISSLQPEDFATYFCQQYDTYPFTFGQGTKVEIKRTVAAPSVFIFPPSDEQLKSGTASVVCLLNNFYPREAKVQWKVDNALQSGNSQESVTEQDSKDSTYSLSSTLTLSKADYEKHKVYACEVTHQGLSSPVTKSFNRGEC
no binding | no binding | MetMAb × BHA10 IgG BsAb, CH1/Cκ design 14.3.1.1 (bispecific antibody, Human IgG1; also called MetMAb × BHA10 14.3.1.1) heavy 1: EVQLVESGGGLVQPGGSLRLSCAASGYTFTSYWLHWVRKAPGKGLEWVGMIDPSNSDTRFNPEFKDRFTISADTSKNTAYLQMNSLRAEDTAVYYCATYRSYVTPLDYWGQGTLVTVSSASTKGPSVFPLAPSSKSTSGGTAALGCLVADYFPEPVTVSWNSGALTSGVHTFPAVLQSSGLYSLASVVTVPSSSLGTQTYICNVNHKPSNTKVDKKVEPKSCDKTHTCPPCPAPELLGGPSVFLFPPKPKDTLMISRTPEVTCVVVDVSHEDPEVKFNWYVDGVEVHNAKTKPREEQYQSTYRVVSVLTVLHQDWLNGKEYKCKVSNKALPAPIEKTISKAKGQPREPQVYTLPPSREEMTDNQVSLTCLVKGFYPSDIAVEWESNGQPENNYKTTPPVLMSDGSFFLASKLTVDKSRWQQGNVFSCSVMHEALHNHYTQKSLSLSPG light 1: RIQMTQSPSSLSASVGDRVTITCKSSQSLLYTSSQKNYLAWYQDKPGKAPKLLIYWASTRESGVPSRFSGSGSGTDFTLTISSLQPEDFATYYCQQYYAYPWTFGQGTKVEIKRTVAAPSVFIFPPSDEQLKSGTARVVCLLNNFYPREAKVQWKVDNALQSGNSQESVTEQDSKDSTYSLISTLTLSKADYEKHKVYACEVTHQGLSSPVTKSFNRGEC heavy 2: QVQLVQSGAEVKKPGSSVKVSCKASGYTFTTYYLHWVRYAPGQGLEWMGWIYPGNVHAQYNEKFKGRVTITADKSTSTAYMELSSLRSEDTAVYYCARSWEGFPYWGRGTTVTVSSASTKGPSVFPLAPSSKSTSGGTAALGCLVKDYFPEPVTVSWNSGALTSGVHTFPAVLQSSGLYSLSSVVTVPSSSLGTQTYICNVNHKPSNTKVDEKVEPKSCDKTHTCPPCPAPELLGGPSVFLFPPKPKDTLMISRTPEVTCVVVDVSHEDPEVKFNWYVDGVEVHNAKTKPREEQYQSTYRVVSVLTVLHQDWLNGKEYKCKVSNKALPAPIEKTISKAKGQPRRPRVYTLPPSREEMTKNQVSLVCLVKGFYPSDIAVEWESNGQPENNYKTTPPVLDSDGSFFLYSVLTVDKSRWQQGNVFSCSVMHEALHNHYTQKSLSLSPG light 2: DIQMTQSPSSLSASVGDRVTITCKASQNVGINVAWYQRKPGDAPKSLISSASYRYSGVPSRFSGSGSGTDFTLTISSLQPEDFATYFCQQYDTYPFTFGQGTKVEIKRTVAAPSVFIFPPSDKQLKSGTASVVCLLNNFYPREAKVQWKVDNALQSGNSQESVTEQDSKDSTYSLSSTLTLSKADYEKHKVYACEVTHQGLSSPVTKSFNRGEC
no binding | no binding | MetMAb × BHA10 IgG BsAb, CH1/Cκ design 14.1.2 (bispecific antibody, Human IgG1; also called MetMAb × BHA10 14.1.2) heavy 1: EVQLVESGGGLVQPGGSLRLSCAASGYTFTSYWLHWVRKAPGKGLEWVGMIDPSNSDTRFNPEFKDRFTISADTSKNTAYLQMNSLRAEDTAVYYCATYRSYVTPLDYWGQGTLVTVSSASTKGPSVFPLAPSSKSTSGGTAALGCLVADYFPEPVTVSWNSGALTSGVHTFPAVLQSSGLYSLSSVVTVPSSSLGTQTYICNVNHKPSNTKVDEKVEPKSCDKTHTCPPCPAPELLGGPSVFLFPPKPKDTLMISRTPEVTCVVVDVSHEDPEVKFNWYVDGVEVHNAKTKPREEQYQSTYRVVSVLTVLHQDWLNGKEYKCKVSNKALPAPIEKTISKAKGQPREPQVYTLPPSREEMTDNQVSLTCLVKGFYPSDIAVEWESNGQPENNYKTTPPVLMSDGSFFLASKLTVDKSRWQQGNVFSCSVMHEALHNHYTQKSLSLSPG light 1: RIQMTQSPSSLSASVGDRVTITCKSSQSLLYTSSQKNYLAWYQDKPGKAPKLLIYWASTRESGVPSRFSGSGSGTDFTLTISSLQPEDFATYYCQQYYAYPWTFGQGTKVEIKRTVAAPSVFIFPPSDKQLKSGTARVVCLLNNFYPREAKVQWKVDNALQSGNSQESVTEQDSKDSTYSLSSTLTLSKADYEKHKVYACEVTHQGLSSPVTKSFNRGEC heavy 2: QVQLVQSGAEVKKPGSSVKVSCKASGYTFTTYYLHWVRYAPGQGLEWMGWIYPGNVHAQYNEKFKGRVTITADKSTSTAYMELSSLRSEDTAVYYCARSWEGFPYWGRGTTVTVSSASTKGPSVFPLAPSSKSTSGGTAALGCLVKDYFPEPVTVSWNSGALTSGVHTFPAVLQSSGLYSLSSVVTVPSSSLGTQTYICNVNHKPSNTKVDKKVEPKSCDKTHTCPPCPAPELLGGPSVFLFPPKPKDTLMISRTPEVTCVVVDVSHEDPEVKFNWYVDGVEVHNAKTKPREEQYQSTYRVVSVLTVLHQDWLNGKEYKCKVSNKALPAPIEKTISKAKGQPRRPRVYTLPPSREEMTKNQVSLVCLVKGFYPSDIAVEWESNGQPENNYKTTPPVLDSDGSFFLYSVLTVDKSRWQQGNVFSCSVMHEALHNHYTQKSLSLSPG light 2: DIQMTQSPSSLSASVGDRVTITCKASQNVGINVAWYQRKPGDAPKSLISSASYRYSGVPSRFSGSGSGTDFTLTISSLQPEDFATYFCQQYDTYPFTFGQGTKVEIKRTVAAPSVFIFPPSDEQLKSGTASVVCLLNNFYPREAKVQWKVDNALQSGNSQESVTEQDSKDSTYSLSSTLTLSKADYEKHKVYACEVTHQGLSSPVTKSFNRGEC
